Laboratory results from patent US10577428B2, “Anti-factor XI monoclonal antibodies and methods of use thereof” (Oregon Health & Science University, priority 2007, dated 2020).
“Also recorded” adds a separate entry of the source.

Test system: baboons (Papio anubis)
Assay: Vascular graft occlusion studies, collagen coated 2 mm i.d. grafts, high arterial shear
Type: in vivo, baboon (Papio anubis)
Conditions: 2 mm i.d. grafts
Experimental: Thrombus formation was initiated within the baboon AV shunt by interposing a thrombogenic segment of prosthetic vascular graft (ePTFE, WL Gore & Co., Flagstaff, Ariz.), as previously described (Hanson et al. (1993) J. Clin. Invest. 92:2003-2012). To consistently trigger platelet-dependent thrombus formation, the clinical graft segments were coated with immobilized collagen. Twenty mm long grafts having internal diameters (i.d.) of either 2 or 4 mm were filled with equine type I collagen (1 mg/ml; Nycomed Arzenmittel, Munich, Germany) for 15 min, and then dried overnight under sterile airflow. This method produced a uniform collagen coating within the graft lumen as determined by scanning electron microscopy (FIGS. 1B and 1C). The thrombogenic collagen-coated grafts were then incorporated between segments of silicon rubber tubing, and deployed into the AV shunts (FIG. 1A). The grafts were exposed to blood for up to 60 min. During each experiment, the blood flow rate through the graft was restricted to 100 ml/min by clamping the proximal silicone rubber shunt segment, thereby producing a mean wall shear rate (MWSR) in the 4 mm grafts of 265 s^−1, while in the 2 mm grafts the initial MWSR was 2120 s^−1. Flow rates were continuously monitored using an ultrasonic flow meter (Transonics Systems, Ithaca, N.Y.). […] Baseline blood flow was restored through the permanent shunt after each experiment. In the 2 mm diameter grafts blood flow rates progressively declined due to thrombus formation. The grafts were removed from the AV shunts when the flow rate fell from 100 ml/min to below 20 ml/min, signaling imminent occlusion. The time from initiation of blood flow to graft removal (<20 ml/min blood flow) was taken as the occlusion time.
Occlusion studies were performed using 10 mm long 2 mm i.d. collagen coated devices which produced high arterial shear rates (2120 s^−1 at 100 ml/min clamped blood flow). Accumulation of labeled platelets onto 2 mm thrombogenic grafts were measured in 3-min intervals using a gamma scintillation camera. Flow was maintained at 100 ml/min by proximal clamping for as long as possible, and then allowed to decrease as the propagating thrombus began to occlude the device. A final blood flow rate of 20 ml/min was used as a cutoff for occlusion, since a fully occlusive thrombi and lack of blood flow through the device could lead to occlusion of the shunt and a significant loss of blood for the animals.
Since aspirin is a less antihemostatic agent than heparin, and it is often included in the standard treatment of arterial-type platelet-dependent thrombosis, ASA was used in the current studies with the occlusion-prone 2 mm i.d. grafts as a long-acting positive control. ASA (32 mg/kg) was administered orally 2-4 h before each thrombosis experiment, as described previously (Hanson et al. (1985) J. Clin. Invest. 75:1591-1599). Four weeks were allowed for washout of each aXIMab and ASA before performing new experiments in the same animal.

B1: aXIMab: neutralizing murine IgG/kappa anti-human FXI monoclonal antibody from hybridoma 1A6; binds A3 domain; VH SEQ ID NO:3, VL SEQ ID NO:5 (antibody, listed as Mus musculus, V domains shown)
VH: QVTLKESGPGILKPSQTLSLTCSFSGFSLSTSGMGVGWIRQPSGKGLEWLAHIWWDDDKYYNPSLKSQLTISKDTSRNQVFLKITSVDAADTATYYCARKRSSVVAHYYAMDYWGQGTSVTVSS
VL: DIVLTQSPASLAVSLGQRATISCKASQSVDYDGDSYLNWYQQKPGQPPKLLIYAASNLESGIPARFSGSGSGTDFTLNIHPVEEEDAATYYCQQSNGDPWTFGGGTKLEIK
- initial platelet accumulation rate versus vehicle: similar
- thrombus stability (2120 s^-1): unstable; also recorded: profoundly reduced
- Number occluded (60 min): 0/5
- graft occlusion (60 min-long studies (FIG. 5)): did not occlude the grafts
- time after initiation of blood perfusion when growth rate of platelet thrombus was reduced (all treated animals): 12 to 15 min
- Embolic events per experiment (mean ± SEM): 6.6 ± 0.9
- Fibrin deposition (mean ± SEM, control 0.30 ± 0.04): 0.18 ± 0.02 mg
- grafts remained patent (over 60 min): 5 of 5
